In experiment [1] the test system is CHLA06 cells. Briefly: Dose response / cell viability in CHLA06 cells. Type of experiment: cell-based. The method, then: (§1) Biological activity of the peptides was determined using various assays. To determine proliferative activity, cells were plated at 5×10^3 cells per well in a 96-well microtiter plate. Samples and controls were added and the plates incubated for 24, 48 and 72 hours at 37° C. Viability was determined by adding WST-1 and reading at […] over 1-4 hours. Alternatively, viability was determined using a kit such as the EZViable calcein AM cell viability assay (BioVision) or the Live/Dead Cell imaging kit (ThermoFisher). Induction of cell events such as apoptosis was determined using reagents such as Cell Event Caspase 3/7 reagent (ThermoFisher).

Experiment [2] relates to A431 cells. Briefly: Dose response / cell viability in A431 cells. Type of experiment: cell-based, human. The method, then: as §1
(§2) Cells were plated at 5000 cells/well in 100 ul D10 on day 0.100 ul of PDCs were added and titrated 1:1 in D10 (starting concentration=500 nM). WST-1 was added at 72 hours and the plates read over 5 hours at […] in a Promega GloMax.
A pocket biologic (peptide or antibody) having an internalization portion, a linker, and a localization signal was developed to deliver a drug or biological therapeutic into the cell. […] 429-MMAE-1 and 429-NLS-Panobinostat constructs were developed for in vivo studies. G292 cell lines and A431 cell lines were used in the in vivo studies. G292 cells were derived from a primary osteosarcoma of a person. […] A431 cells were established from an epidermoid carcinoma in the skin (epidermis) of a patient. Epidermal growth factor (EGF) stimulation of A431 cells induces rapid tyrosine phosphorylation of intracellular signaling proteins which control cellular processes such as growth, proliferation and apoptosis. […] 429-MMAE affected cell viability in G292 cell lines (FIG. 16A-FIG. 17). 429-MMAE at 50 nm, 125 nm, 250 nm, 500 nm concentrations and OV-MMAE conjugates at 50 nm, 125 nm, 250 nm, 500 nm concentrations were compared to DMSO and MMAE at 50 nm in G292 cells.

For experiment [3], the system named is microtubules. As to the kind of experiment: ViaFluor 647 live cell microtubule stain (FIG. 6). The format is cell-based. The conditions noted are these: ViaFluor 647 stain, 60 minutes at 37° C. The method, then: Cells were stained with ViaFluor 647 live cell microtubule stain (Biotium). Cells were treated as in FIG. 3 and stain with ViaFluor for 60 minutes at 37° C.

Experiment [4] relates to cancer cell lines of different lineages. Briefly: Internalization of OV-8 in cell lines. The conditions noted are these: FIG. 2. The format is cell-based.
The test system of experiment [5] is CHLA06 cells. As to the kind of experiment: Confocal microscopy of 429-SMARCB1 in CHLA06 cells. Type of experiment: cell-based. To be noted: confocal fluorescent microscopy.
Experiment [6] deals with ATRT cell lines. Briefly: Apoptosis in ATRT cell lines, combination with tazemetostat. Type of experiment: cell-based.
In experiment [7] the test system is HCT116 cells. Briefly: Dose response / cell viability in HCT116 cells. The conditions noted are these: HCT116 Myc-reporter cells. Type of experiment: cell-based, human. The method, then: as §1, §2
The subject of experiment [8] is Myc transcription. As to the kind of experiment: Myc transcription in HCT116 Myc-reporter cells. Type of experiment: cell-based, human. The conditions noted are these: for inhibition of Myc transcription: dose series.
Experiment [9] concerns CHLA06 cells. Briefly: Caspase assay (apoptosis) in CHLA06 cells. The conditions noted are these: SMARCB1 conjugate and tazemetostat treatments. Type of experiment: cell-based. How it is done: as §1
429-MMAE was also compared with 429-SM in various cell lines. 429-SM represents 429-Smarc-MMAE and consists of 429-linker-NLS-SMARCB1 mimic to which 1 or 2 MMAE molecules are conjugated through the cysteines. CHLA06 cells were plated at 10,000 cells/well in B27-5 overnight. Samples were added and incubated for 48 hours at 37° C. Caspase 3/7 reagent was added and plates were read after 30 minutes at room temperature. […] Induction of apoptosis is directly correlated with drug concentration (i.e., higher the concentration of drug, the higher the apoptotic effect). […] 429-SM was also effective in A431 and HCT116 cells (FIG. 42C-42D).

The subject of experiment [10] is CHLA02 cells. Briefly: Caspase activity / apoptosis in CHLA02 cells. The format is cell-based. To be noted: CHL02 cells; SMARCB1 Mimic (F) and tazemetostat treatments. How it is done: as §1

Read-outs that look alike come from different tables or passages of the source. Non-standard residues stand in square brackets, D forms with d. Residues, ends and D or L forms follow the SMILES beside them. *: point of attachment. Dolaproine = CO[C@@H]([C@@H]1CCCN1)[C@@H](C)C(=O)O; Dil = CC[C@H](C)[C@H](NC)[C@@H](CC(=O)O)OC; X1 = C[C@@H](N*)[C@@H](O)c1ccccc1; NMeV = CN[C@H](C(=O)O)C(C)C

Turning to `Nc1ncnc2c1c(-c1cccc(OCc3ccccc3)c1)cn2C1CC(CN2CCCC2)C1` (centres unmarked) [NVP-ADW742], the “effect on CHLA06 cells (dose response)” value in [1] (FIG. 38A) is listed as “no effects”.
For orientation: IC50 means the concentration at which inhibition is half-maximal. With `CC[C@H](C)[C@@H]([C@@H](CC(=O)N1CCC[C@H]1[C@H](OC)[C@@H](C)C(=O)N[C@H](C)[C@@H](O)c1ccccc1)OC)N(C)C(=O)[C@@H](NC(=O)[C@@H](NC)C(C)C)C(C)C` [MMAE, monomethyl auristatin E, reference compound] (H-[NMeV]V[Dil][Dolaproine]-X1), in experiment [2] (A431 cells, MMAE at 1:3 dilutions, FIG. 20A, read-out: IC50 value (four-parameter non-linear regression)), the IC50 was found to be 0.0712 nM. Moreover, in [3], the disruption of microtubules entry is listed as “disrupt microtubules”.
Take `C[C@]1(O)C[C@@H](c2nc(-c3ccc4ccc(-c5ccccc5)nc4c3)c3c(N)nccn32)C1` [Linsitinib]: the “effect on CHLA06 cells (dose response)” value in [1] (FIG. 38A) is “no effects”.
Turning to `Cc1[nH]c2ccccc2c1CCNCc1ccc(/C=C/C(=O)NO)cc1` [Panobinostat, reference compound], the concentration for half-maximal inhibition (IC50) in [2] (Homo sapiens, A-431, A431 cells, FIG. 20B, FIG. 24A, read-out: IC50 value) is 108 nM; in experiment [2] (Homo sapiens, A-431, printed as A431 treated with Panobinostat, in the sentence on CHLA06 cells, FIG. 24B, read-out: IC50) it was more than 500 nM.
Regarding FSFGNSSLRKLPGVVRRRRCARGVWR [Skwx-OV-8], the “internalization into cancer cell lines” value in [4] is given as “internalize”.
As for `COc1cc([C@@H]2c3cc4c(cc3[C@H](O)[C@H]3COC(=O)[C@@H]23)OCO4)cc(OC)c1OC` [PPP, Picropodophyllin], in [1] (FIG. 38A), the “effect on CHLA06 cells (dose response)” value is on record as “active” and the “effectiveness compared to 429-MMAE in terms of IC50” value is “less effective”.

B1: 429-SMARCB1: 429 construct delivering SmarcB1-myc binding sequence to nucleus (peptide)
chain: DFYGCLLDLSLGVPSLGWRRRCITAWLPSSIPKKKRKVDGQKLRDAFTWNMNEKLMTPEMFSEILCDDLD
modifications: 429 conjugate
B1: the internalization result in experiment [5] (CHLA06 cells) is on record as “internalized”. For the same molecule, the co-localization with histones result in experiment [5] was “co-localizes with histones”. The “apoptotic effect in combination with tazemetostat” value in experiment [6] is given as “synergistic apoptotic effect”. For the same molecule, the “HCT116 cell viability compared to a control” value in experiment [7] is listed as “affects HCT116 cell viability”. The cell viability result in experiment [1] (429-SMARCB1 and tazemetostat treatments) is “reduced cell viability”. Moreover, the “Myc transcription compared to the control” value in experiment [8] (5 nM) and in experiment [8] (50 nM) was “significantly affects Myc transcription” throughout. Further, the “inhibition of Myc transcription” value in experiment [8] is “inhibits Myc transcription”. In addition, in [9], the caspase activity result is reported as “increased caspase activity”.

B2: DFYGCLLDLSLGVPSLGWRRRCITAWLPSSIPKKKRKVDGQKLRDAFTWNMNEKLMTPEMFSEILCDDLD (peptide)
chain: DFYGCLLDLSLGVPSLGWRRRCITAWLPSSIPKKKRKVDGQKLRDAFTWNMNEKLMTPEMFSEILCDDLD
modifications: not fully specified
In the case of B2, the “HCT116 cell viability compared to a control” value in experiment [7] was “inhibited”. Besides, the “CHLA06 cell viability compared to 429 control” value in [1] (50 ug) is given as “significantly affected CHLA06 cell viability”. Besides, the caspase activity entry in experiment [10] and in experiment [9] was “significantly increased caspase activity” each time. The “inhibition of Myc transcription” value in experiment [8] is listed as “inhibited”.

The record behind these values is patent publication US20250082769A1, “CELLULAR UPTAKE PEPTIDE-THERAPEUTIC PAYLOAD COMPOSITIONS AND METHODS OF USE” (Nighthawk Biosciences, Inc., priority 2022, published 2025).
